Assay results as given in PMC13184332.

B1: dsAT (dsDNA)
DNA 1: TTAATTAAATAAATTAAAAAATTTTTTAATTAAATTAATTAATAAATTAAAATAAATTTTTTAATTAAATTTTAA
DNA 2: TTAAAATTTAATTAAAAAATTTATTTTAATTTATTAATTAATTTAATTAAAAAATTTTTTAATTTATTTAATTAA
B2: ssAT (ssDNA)
DNA: B1 DNA 1
B3: dsGC (dsDNA)
DNA 1: CGGGGCGCCGCGGGGCCCCCGGCCCGCCCCGCGGGGCGCCGGGCCCCGCC
DNA 2: GGCGGGGCCCGGCGCCCCGCGGGGCGGGCCGGGGGCCCCGCGGCGCCCCG

target: T1, His-GFP-KERP2 (Entamoeba histolytica, UniProt C4LZX9 1-239); assay: EMSA
T1 sequence: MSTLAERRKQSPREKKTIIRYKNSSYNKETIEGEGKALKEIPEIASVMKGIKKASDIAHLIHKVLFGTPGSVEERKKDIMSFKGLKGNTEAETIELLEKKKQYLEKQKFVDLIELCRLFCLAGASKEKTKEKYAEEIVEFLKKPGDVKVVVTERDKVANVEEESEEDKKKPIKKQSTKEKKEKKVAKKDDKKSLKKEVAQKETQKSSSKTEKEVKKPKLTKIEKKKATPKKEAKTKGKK

Binder	binding result
B1	binds
B2	binds
B3	no binding

target: T2, His-GFP-KERP2Δ185-239 (Entamoeba histolytica, UniProt C4LZX9 1-184, del185-239); assay: EMSA
T2 sequence: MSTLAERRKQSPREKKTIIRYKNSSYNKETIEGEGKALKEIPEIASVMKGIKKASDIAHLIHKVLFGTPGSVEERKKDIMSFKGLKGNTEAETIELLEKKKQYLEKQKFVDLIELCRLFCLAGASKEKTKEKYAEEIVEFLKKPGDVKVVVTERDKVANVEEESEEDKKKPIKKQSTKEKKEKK

Binder	binding result
B1	binds
B2	binds
B3	no binding
